Patent publication US20230331827A1, “POTASSIUM CHANNEL INHIBITORS” (priority 2017, published 2023)
Read-outs that look alike come from different tables or passages of the source.

Experiments:
human Kv1.3 (human) [1] = molecular target: human Kv1.3 (human) (UniProt P22001); test: cell-based or functional assay
human Kv1.3 (human) [2] = molecular target: human Kv1.3 (human) (UniProt P22001); test: cell-based or functional assay; remark: listed apart in the source
human Kv1.1 (human) = human Kv1.1 (human) (UniProt Q09470); test: cell-based or functional assay
trypsin = test: monoclonal phage ELISA on trypsin

Chain of human Kv1.3 (human) (P22001 whole entry): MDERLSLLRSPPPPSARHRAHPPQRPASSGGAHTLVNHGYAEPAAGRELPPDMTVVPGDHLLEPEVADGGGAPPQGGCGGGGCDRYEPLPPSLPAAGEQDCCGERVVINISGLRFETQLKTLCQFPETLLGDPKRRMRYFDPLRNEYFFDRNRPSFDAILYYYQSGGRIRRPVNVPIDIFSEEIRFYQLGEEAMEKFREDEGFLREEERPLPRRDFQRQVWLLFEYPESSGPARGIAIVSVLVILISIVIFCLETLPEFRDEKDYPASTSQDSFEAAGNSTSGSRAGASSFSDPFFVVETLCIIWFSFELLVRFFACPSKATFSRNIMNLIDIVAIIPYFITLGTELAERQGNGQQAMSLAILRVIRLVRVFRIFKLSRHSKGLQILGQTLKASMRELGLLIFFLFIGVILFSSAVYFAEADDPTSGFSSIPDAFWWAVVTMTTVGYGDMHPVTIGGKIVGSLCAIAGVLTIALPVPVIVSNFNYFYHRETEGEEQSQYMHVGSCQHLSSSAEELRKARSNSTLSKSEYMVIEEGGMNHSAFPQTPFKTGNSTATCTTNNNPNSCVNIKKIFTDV
Chain of human Kv1.1 (human) (Q09470 whole entry): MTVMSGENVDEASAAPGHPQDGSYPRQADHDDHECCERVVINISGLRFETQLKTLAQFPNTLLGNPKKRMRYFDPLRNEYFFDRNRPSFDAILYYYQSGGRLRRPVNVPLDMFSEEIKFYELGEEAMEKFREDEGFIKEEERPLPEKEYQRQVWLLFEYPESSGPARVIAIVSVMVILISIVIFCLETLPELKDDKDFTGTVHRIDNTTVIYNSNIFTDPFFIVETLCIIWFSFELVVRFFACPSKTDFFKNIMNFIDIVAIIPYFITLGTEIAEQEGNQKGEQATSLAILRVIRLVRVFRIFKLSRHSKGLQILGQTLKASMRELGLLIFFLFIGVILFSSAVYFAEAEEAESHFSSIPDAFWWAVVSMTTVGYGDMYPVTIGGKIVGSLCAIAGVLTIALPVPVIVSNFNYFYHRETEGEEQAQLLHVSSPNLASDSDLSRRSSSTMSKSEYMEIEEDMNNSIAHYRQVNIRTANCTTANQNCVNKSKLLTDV

B1: KB_A12_KTX (antibody)
VH: EVQLVESGGGLVRPGGSLRLSCAASGFTFSSYAMSWVRQAPGKGLEWVSAISGSGGSTYYADSVKGRFTISRDNTKNSLYLQMTSLRADDTAFYYCVKDFGPGYGTGWFDYWGPGTLVTVSS
VL: QSVLTQPPSVSEAPRQRVTITCSGSSSNIGNNAVNWYQQLPGKAPKLLIYAAGRGVEINVKCSGSPQCLKPCKDAGMRFGKCMNRKCHCTPKANSGVSDRFSAAKSGTSASLAINGLRSEDEADYYCAAWDDSLNGYVFGTGTKLTVLGQP
- IC50, huKv1.3 current, QPatch patch clamp (human Kv1.3 (human) [1]): 430 nM
- Fold difference (Kv1.1 IC50 against Kv1.3 IC50) (human Kv1.3 (human) [2]): 3 fold
- IC50, huKv1.3 current, QPatch patch clamp (human Kv1.3 (human) [2]): > 10000 nM
- Kv1.3 IC50, QPatch patch clamp (human Kv1.3 (human) [2]): 1540 nM
- Kv1.1 IC50, QPatch patch clamp (human Kv1.1 (human)): 4800 nM

B2: F01 (EET 5-3 KnotBody) (scFv, V domains shown)
VH: EVQLVESGGGLVRPGGSLRLSCAASGFTFSSYAMSWVRQAPGKGLEWVSAISGSGGSTYYADSVKGRFTISRDNTKNSLYLQMTSLRADDTAFYYCVKDFGPGYGTGWFDYWGPGTLVTVSS
VL: YLNWYQQKPGKAPKLLIDAAGECGPNGFCGSGSDGGVCPRINMRCKQDSDCLAGCGRDSGVPSRFSGSGSGTDFTLTISSLQPEDFATYYCQQSYSTPWTFGQGTKVEIKR
- ELISA signal (trypsin): 102000

B3: E08 (EET 5-3 KnotBody) (scFv, V domains shown)
VH: EVQLVESGGGLVRPGGSLRLSCAASGFTFSSYAMSWVRQAPGKGLEWVSAISGSGGSTYYADSVKGRFTISRDNTKNSLYLQMTSLRADDTAFYYCVKDFGPGYGTGWFDYWGPGTLVTVSS
VL: AVNWYQQLPGKAPKLLIYAAGGCGPNGFCGSGSDGGVCPRILMRCKQDSDCLAGCGIQSGIPERFSGSKSGTSASLAISGLRSEDEADYYCAAWDDNLSGYVFGTGTKLTVLG
- ELISA signal (trypsin): 121000

B4: KB_A12_Odk2 (antibody, V domains shown)
VH: EVQLVESGGGLVRPGGSLRLSCAASGFTFSSYAMSWVRQAPGKGLEWVSAISGSGGSTYYADSVKGRFTISRDNTKNSLYLQMTSLRADDTAFYYCVKDFGPGYGTGWFDYWGPGTLVTVSS
VL: QSVLTQPPSVSEAPRQRVTITCSGSSSNIGNNAVNWYQQLPGKAPKLLIYAAGRGVPTDVKCRGSPQCIQPCKDAGMRFGKCMNGKCHCTPKANSGVSDRFSAAKSGTSASLAINGLRSEDEADYYCAAWDDSLNGYVFGTGTKLTVLG
- IC50, huKv1.3 current, QPatch patch clamp (human Kv1.3 (human) [1]): 222 nM
- Fold difference (Kv1.1 IC50 against Kv1.3 IC50) (human Kv1.3 (human) [2]): 6 fold
- Kv1.3 IC50, QPatch patch clamp (human Kv1.3 (human) [2]): 457 nM
- Kv1.1 IC50, QPatch patch clamp (human Kv1.1 (human)): 2750 nM

B5: KB_A07_HsTx1 (antibody, V domains shown)
VH: EVQLVESGGGLVRPGGSLRLSCAASGFTFSSYAMSWVRQAPGKGLEWVSAISGSGGSTYYADSVKGRFTISRDNTKNSLYLQMTSLRADDTAFYYCVKDFGPGYGTGWFDYWGPGTLVTVSS
VL: NWYQQKPGKAPKLLIYAAGVASCRTPKDCADPCRKETGCPYGKCMNRKCKCNRCSRSGVPSRFSGSGSGTDFTLTISSLQPEDFATYYCQQGASPPYTFGQGTKVEIKR
- IC50, huKv1.3 current, QPatch patch clamp (human Kv1.3 (human) [1]): 4.7 nM

B6: E05 (EET 5-3 KnotBody) (scFv, V domains shown)
VH: EVQLVESGGGLVRPGGSLRLSCAASGFTFSSYAMSWVRQAPGKGLEWVSAISGSGGSTYYADSVKGRFTISRDNTKNSLYLQMTSLRADDTAFYYCVKDFGPGYGTGWFDYWGPGTLVTVSS
VL: AVNWYQQLPGKAPKLLIYAAGGCGPNGFCGSGSDGGVCPRILMRCKQDSDCLAGCGAQSGIPERFSGSKSGTSASLAISGLQSEDEAHYYCAAWDDSLNGYVFGTGTKVTVLG
- ELISA signal (trypsin): 119000

B7: E09 (EET 5-3 KnotBody) (scFv, V domains shown)
VH: EVQLVESGGGLVRPGGSLRLSCAASGFTFSSYAMSWVRQAPGKGLEWVSAISGSGGSTYYADSVKGRFTISRDNTKNSLYLQMTSLRADDTAFYYCVKDFGPGYGTGWFDYWGPGTLVTVSS
VL: AVNWYQQLPGKAPKLLIYAAGGCGPNGFCGSGSDGGVCPRILMRCKQDSDCLAGCGTQSGIPERFSGSKSGTSASLAISGLRSEDEADYYCAAWDDSLRAYVFGTGTQLTVLG
- ELISA signal (trypsin): 70300

B8: KB_A12_ADWX1 short (antibody, V domains shown)
VH: EVQLVESGGGLVRPGGSLRLSCAASGFTFSSYAMSWVRQAPGKGLEWVSAISGSGGSTYYADSVKGRFTISRDNTKNSLYLQMTSLRADDTAFYYCVKDFGPGYGTGWFDYWGPGTLVTVSS
VL: NWYQQLPGKAPKLLIYAAGRVKCKHSRQCLKPCKDAGMRFGKCTNGKCHCTPKANSGVSDRFSAAKSGTSASLAINGLRSEDEADYYCAAWDDSLNGYVFGTGTKLTVLG
- IC50, huKv1.3 current, QPatch patch clamp (human Kv1.3 (human) [1]): 170 nM
- Fold difference (Kv1.1 IC50 against Kv1.3 IC50) (human Kv1.3 (human) [2]): 6 fold
- Kv1.3 IC50, QPatch patch clamp (human Kv1.3 (human) [2]): 251 nM
- Kv1.1 IC50, QPatch patch clamp (human Kv1.1 (human)): 1400 nM

B9: E01 (EET 5-3 KnotBody) (scFv, V domains shown)
VH: EVQLVESGGGLVRPGGSLRLSCAASGFTFSSYAMSWVRQAPGKGLEWVSAISGSGGSTYYADSVKGRFTISRDNTKNSLYLQMTSLRADDTAFYYCVKDFGPGYGTGWFDYWGPGTLVTVSS
VL: AVNWYQQLPGKAPKLLIYAAGGCGPNGFCGSGSDGGVCPRILMRCKQDSDCLAGCGIHSGVSDRFSDSKSGTSASLAISGLQSEDEADYYCAAWDDSLNGYVFGTGTKLTVLG
- ELISA signal (trypsin): 128000

B10: KB_A12_HsTx1 (antibody, V domains shown)
VH: EVQLVESGGGLVRPGGSLRLSCAASGFTFSSYAMSWVRQAPGKGLEWVSAISGSGGSTYYADSVKGRFTISRDNTKNSLYLQMTSLRADDTAFYYCVKDFGPGYGTGWFDYWGPGTLVTVSS
VL: NWYQQLPGKAPKLLIYAAGRASCRTPKDCADPCRKETGCPYGKCMNRKCKCNRCANSGVSDRFSAAKSGTSASLAINGLRSEDEADYYCAAWDDSLNGYVFGTGTKLTVLG
- IC50, huKv1.3 current, QPatch patch clamp (human Kv1.3 (human) [1]): 3.9 nM
- Fold difference (Kv1.1 IC50 against Kv1.3 IC50) (human Kv1.3 (human) [2]): 43 fold
- Kv1.3 IC50, QPatch patch clamp (human Kv1.3 (human) [2]): 15 nM
- Kv1.1 IC50, QPatch patch clamp (human Kv1.1 (human)): 650 nM

B11: E03 (EET 5-3 KnotBody) (scFv, V domains shown)
VH: EVQLVESGGGLVRPGGSLRLSCAASGFTFSSYAMSWVRQAPGKGLEWVSAISGSGGSTYYADSVKGRFTISRDNTKNSLYLQMTSLRADDTAFYYCVKDFGPGYGTGWFDYWGPGTLVTVSS
VL: AVNWYQQLPGKAPKLLIYAAGGCGPNGFCGSGSDGGVCPRILMRCKQDSDCLAGCGRNSGIPERFSGSKSGHTATLTISRVEAGDEADYYCQVWDSSSDHVLFGGGTKLTVLG
- ELISA signal (trypsin): 82500

B12: KB_A12_Vm24 (antibody, V domains shown)
VH: EVQLVESGGGLVRPGGSLRLSCAASGFTFSSYAMSWVRQAPGKGLEWVSAISGSGGSTYYADSVKGRFTISRDNTKNSLYLQMTSLRADDTAFYYCVKDFGPGYGTGWFDYWGPGTLVTVSS
VL: QSVLTQPPSVSEAPRQRVTITCSGSSSNIGNNAVNWYQQLPGKAPKLLIYAAGRAAAISCVGSPECPPKCRAQGCKNGKCMNRKCKCYYCANSGVSDRFSAAKSGTSASLAINGLRSEDEADYYCAAWDDSLNGYVFGTGTKLTVLG
- IC50, huKv1.3 current, QPatch patch clamp (human Kv1.3 (human) [1]): 16 nM
- Fold difference (Kv1.1 IC50 against Kv1.3 IC50) (human Kv1.3 (human) [2]): 102 fold
- Kv1.3 IC50, QPatch patch clamp (human Kv1.3 (human) [2]): 12 nM
- Kv1.1 IC50, QPatch patch clamp (human Kv1.1 (human)): 1220 nM

B13: KB_A12_ADWX1 (antibody, V domains shown)
VH: EVQLVESGGGLVRPGGSLRLSCAASGFTFSSYAMSWVRQAPGKGLEWVSAISGSGGSTYYADSVKGRFTISRDNTKNSLYLQMTSLRADDTAFYYCVKDFGPGYGTGWFDYWGPGTLVTVSS
VL: QSVLTQPPSVSEAPRQRVTITCSGSSSNIGNNAVNWYQQLPGKAPKLLIYAAGRVGINVKCKHSRQCLKPCKDAGMRFGKCTNGKCHCTPKANSGVSDRFSAAKSGTSASLAINGLRSEDEADYYCAAWDDSLNGYVFGTGTKLTVLG
- IC50, huKv1.3 current, QPatch patch clamp (human Kv1.3 (human) [1]): 270 nM

B14: KB_A12_ShK (antibody, V domains shown)
VH: EVQLVESGGGLVRPGGSLRLSCAASGFTFSSYAMSWVRQAPGKGLEWVSAISGSGGSTYYADSVKGRFTISRDNTKNSLYLQMTSLRADDTAFYYCVKDFGPGYGTGWFDYWGPGTLVTVSS
VL: NWYQQLPGKAPKLLIYAAGRRSCIDTIPKSRCTAFQCKHSMKYRLSFCRKTCGTCANSGVSDRFSAAKSGTSASLAINGLRSEDEADYYCAAWDDSLNGYVFGTGTKLTVLG
- IC50, huKv1.3 current, QPatch patch clamp (human Kv1.3 (human) [1]): 8.6 nM
- Fold difference (Kv1.1 IC50 against Kv1.3 IC50) (human Kv1.3 (human) [2]): 3 fold
- IC50, huKv1.3 current, QPatch patch clamp (human Kv1.3 (human) [2]): 20 nM
- Kv1.3 IC50, QPatch patch clamp (human Kv1.3 (human) [2]): 13 nM
- Kv1.1 IC50, QPatch patch clamp (human Kv1.1 (human)): 40 nM

B15: F07 (EET 5-3 KnotBody) (scFv, V domains shown)
VH: EVQLVESGGGLVRPGGSLRLSCAASGFTFSSYAMSWVRQAPGKGLEWVSAISGSGGSTYYADSVKGRFTISRDNTKNSLYLQMTSLRADDTAFYYCVKDFGPGYGTGWFDYWGPGTLVTVSS
VL: AVNWYQQLPGKAPKLLIYAAGGCGPNGFCGSGSDGGVCPRILMRCKQDSDCLAGCGGQSGVPDRFSGSKSGTSASLAISRLQSEDEADYYCAAWDDSLNAYVFGTGTKVTVLG
- ELISA signal (trypsin): 72800

B16: KB_A12_Odk2 short (antibody, V domains shown)
VH: EVQLVESGGGLVRPGGSLRLSCAASGFTFSSYAMSWVRQAPGKGLEWVSAISGSGGSTYYADSVKGRFTISRDNTKNSLYLQMTSLRADDTAFYYCVKDFGPGYGTGWFDYWGPGTLVTVSS
VL: NWYQQLPGKAPKLLIYAAGRVKCRGSPQCIQPCKDAGMRFGKCMNGKCHCTPKANSGVSDRFSAAKSGTSASLAINGLRSEDEADYYCAAWDDSLNGYVFGTGTKLTVLG
- IC50, huKv1.3 current, QPatch patch clamp (human Kv1.3 (human) [1]): 64 nM
- Fold difference (Kv1.1 IC50 against Kv1.3 IC50) (human Kv1.3 (human) [2]): 8 fold
- Kv1.3 IC50, QPatch patch clamp (human Kv1.3 (human) [2]): 49 nM
- Kv1.1 IC50, QPatch patch clamp (human Kv1.1 (human)): 380 nM

B17: C09 (EET 5-3 KnotBody) (scFv, V domains shown)
VH: EVQLVESGGGLVRPGGSLRLSCAASGFTFSSYAMSWVRQAPGKGLEWVSAISGSGGSTYYADSVKGRFTISRDNTKNSLYLQMTSLRADDTAFYYCVKDFGPGYGTGWFDYWGPGTLVTVSS
VL: SEAPRQRVTITCGGKRCGPNGFCGSGSDGGVCPRILMRCKQDSDCLAGCTSNWYQQKPGQAPVLVVQDDSVRPSGIPERFSGSNSGNTATLTISRVEAGDGADYYCQVWDISSDLGVFGGGTKLTVLG
- ELISA signal (trypsin): 9820

B18: KB_A12_AnTx-N17A/F32T (antibody, V domains shown)
VH: EVQLVESGGGLVRPGGSLRLSCAASGFTFSSYAMSWVRQAPGKGLEWVSAISGSGGSTYYADSVKGRFTISRDNTKNSLYLQMTSLRADDTAFYYCVKDFGPGYGTGWFDYWGPGTLVTVSS
VL: QSVLTQPPSVSEAPRQRVTITCSGSSSNIGNNAVNWYQQLPGKAPKLLIYAAGRQKECTGPQHCTNFCRKAKCTHGKCMNRKCKCTNCKANSGVSDRFSAAKSGTSASLAINGLRSEDEADYYCAAWDDSLNGYVFGTGTKLTVLG
- IC50, huKv1.3 current, QPatch patch clamp (human Kv1.3 (human) [1]): 85 nM
- Fold difference (Kv1.1 IC50 against Kv1.3 IC50) (human Kv1.3 (human) [2]): 94 fold
- Kv1.3 IC50, QPatch patch clamp (human Kv1.3 (human) [2]): 110 nM
- Kv1.1 IC50, QPatch patch clamp (human Kv1.1 (human)): 10300 nM
